Literature values as cited in publication PMC10716173.

Target: stapled BID BH3 peptide BH3 (Homo sapiens) (UniProt P55957)
Sequence (P55957 80-101): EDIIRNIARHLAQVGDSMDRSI

BAK, sequence (Q16611 2-211): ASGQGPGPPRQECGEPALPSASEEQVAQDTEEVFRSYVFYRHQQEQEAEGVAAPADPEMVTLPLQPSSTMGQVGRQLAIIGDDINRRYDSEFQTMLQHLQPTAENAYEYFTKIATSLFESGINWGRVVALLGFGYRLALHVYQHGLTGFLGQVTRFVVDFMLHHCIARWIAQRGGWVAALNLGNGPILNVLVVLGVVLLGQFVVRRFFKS

Substance: BAK (from UniProt Q16611)
- Kd: 1000 nM
